In the supplement of paper PMC10567573:
± gives the standard deviation.

Assay: protein stability index of a GFP-peptide fusion (GPS, HEK-293T) (PSI 1-6); higher = more stable
Conditions: c terminus: a fixed tail appended
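Also: 24-mer peptide tiles fused after GFP, lentivirally expressed, FACS-sorted into six equal bins by GFP/DsRed ratio, decoded by Illumina sequencing, PSI is the read-weighted mean bin number.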

Sequence | protein stability index (treatment: DMSO) | protein stability index (treatment: MLN4924 1 uM, 8 h)
GGRFRCPSCRHEVVLDRHGVYGLQ [TRIM55] | 2.31 ± 0.23 | 2.36 ± 0.6
QMKQKVQSLYQEVFGRLRDENGRP [NFE2L1] | 2.66 ± 0.35 | 3.65 ± 0.48
GPLAQPLTLQVLVAGNPQDTRLRY [ADAMTS4] | 2.49 ± 0.22 | 2.86 ± 0.1
GTSHGAPPARGPRMSYGGSTCHAY [RBMY1A1] | 3.79 ± 0.22 | 3.77 ± 0.21
LLWATNEFSLVNVNLQRFGMNGQM [ETS2] | 2.9 ± 0.64 | 2.94 ± 0.49
FDVETRHVFIGDHSGQVTILKLEQ [WDFY2] | 2.2 ± 0.44 | 2.43 ± 0.33
LLEEEEKQWGPLEREPVRGQCLDS [RTN2] | 5.1 ± 0.3 | 5.26 ± 0.077
TWKSGKQTMLSHYRPFYVNKGNGI [TRIM29] | 2.36 ± 0.41 | 2.4 ± 0.2
RKKDKTWMHTPEALSKHFIPYNAK [GULP1] | 2.82 ± 0.25 | 2.99 ± 0.47
KEFTLLLSAANVCLDPIIYFFLCQ [P2RY14] | 3.06 ± 0.56 | 2.97 ± 0.17
GNPRALSFVLSSLQLGEGVEFDVL [OAS1] | 2.29 ± 0.22 | 2.12 ± 0.32
HNIVHVHFDATRGWLLTSGTDKVI [WDFY2] | 2.26 ± 0.45 | 2.25 ± 0.15
NATAPRSPSHSPEHRRTARRTPPG [ELOA2] | 5 ± 0.15 | 5.2 ± 0.36
IDYGANVNQPNNNGFTPLHFAAAS [ANKRD44] | 3.1 ± 0.19 | 3 ± 0.26
MLQIPQEKSQAYPRRRRPGCYAYR [MYORG] | 3.22 ± 0.43 | 3.23 ± 0.23
FPLKPMVHRKSCSTGEAGTDGDHN [ZC2HC1C] | 4.53 ± 0.18 | 4.38 ± 0.27
LRQRRPLRPQVVTDDDGQAPEAKD [APMAP] | 5.43 ± 0.16 | 5.52 ± 0.12
GNCKYKVDCACLKENPECPVLKRS [KMT2E] | 3.41 ± 0.5 | 4.05 ± 0.74
DQWNILQTPILEGRSGPGCAVLDD [KLHL14] | 4.37 ± 0.34 | 4.16 ± 0.26
KTCSRVDHCAQQDHGCEQLCLNTE [MATN2] | 4.77 ± 0.19 | 4.77 ± 0.21
EQLERINDALSCEYECRRRMLMKR [FAM98B] | 3.09 ± 0.37 | 3.14 ± 0.33
ELGSPLRRSISSSRSENVLSRLSL [PSD2] | 3.07 ± 0.42 | 3.2 ± 0.13
VVPDVRSVVTTARMQVLKRQVQSL [SMARCE1] | 2.5 ± 0.14 | 2.85 ± 0.21

Sequence | protein stability index (treatment: DMSO) | protein stability index (treatment: MLN4924 1 uM, 8 h)
AHSSDVLENVFSSLTDDKYDVAMN [GOLPH3L] | 4.74 ± 0.21 | 4.7 ± 0.3
SYDCTVKLWDPVDGSVVRDFEHRP [WDR88] | 3.44 ± 0.22 | 3.62 ± 0.3
DKVLGTFEFDETSFWNSSHPRGWN [KLHDC2] | 2.93 ± 0.45 | 3.23 ± 0.61
FGVTYLEDYSAEYIIQQGGWGTVF [BCL2L13] | 2.48 ± 0.38 | 2.33 ± 0.26
VNGSWYIQDLCEMLGKYGSSLEFT [CASP6] | 2.95 ± 0.65 | 2.67 ± 0.55
KPTEPSVPVQPLLPESLARSLLPS [FBF1] | 4.33 ± 0.11 | 4.43 ± 0.26
VITALKCHKYDRNIQVTGSAALFY [ZER1] | 2.84 ± 0.18 | 2.85 ± 0.47
LKDEEGKLKDLSTVTSLQVPVLKP [PPP2R2C] | 4.91 ± 0.17 | 5.02 ± 0.085
RQIIKLNRRLQLLEEENKERAKRE [MFF] | 3.81 ± 0.36 | 4.18 ± 0.23
VAGEGVRRKGEMGLSAEDGVWAVI [TRIM15] | 2.51 ± 0.22 | 2.55 ± 0.2
GSSFSGRVFRVTFLMLAVSLTVPL [APMAP] | 3.06 ± 0.3 | 3.05 ± 0.35
EKLIQERSQQQEPLLCPSYQSYFK [KRT34] | 3.36 ± 0.23 | 3.41 ± 0.32
KEAVLAMEKKSKPKNSVWKRLKSP [RIT1] | 4.23 ± 0.21 | 4.19 ± 0.27
GLMVTCGTDRIVKIWDMTPVVGCS [WDFY1] | 2.29 ± 0.21 | 2.18 ± 0.22
AKMGATKEEREDTPIQLQELLALE [TCAP] | 5.28 ± 0.24 | 5.15 ± 0.27
KSNGRGGSQAGGSGSAGQYGSDQQ [MYOZ1] | 5.49 ± 0.23 | 5.4 ± 0.14
QTEKLDTNITEVDAASVYTLPAGA [CASP6] | 5.02 ± 0.2 | 4.81 ± 0.12
DPQNGFDVNNLDPDLRSLFSRAGI [WAS] | 3.93 ± 0.3 | 3.81 ± 0.32
LAWASYDQTGKEVADRWYSEIKNY [GLIPR2] | 2.87 ± 0.5 | 3.05 ± 0.23
SVQQNGSIYIHVYFTKSGFHPDPR [CLPTM1] | 3.14 ± 0.98 | 2.29 ± 0.56
LGALHTSSKPTALPSASSAYFPGQ [SASS6] | 3.59 ± 0.29 | 3.67 ± 0.45
GLLQDQGSGLSSRFEEPKGPPARQ [CBY2] | 4.89 ± 0.29 | 5.09 ± 0.23
